Test results reported in patent US20210188971A1.

Biological target: TSHR on engineered CHO cells (UniProt P16473)
Test: flow cytometry on CHO cells engineered with TSHR, detected with anti-human IgG1 Fc-Alexa Fluor 488

B1: M22 Fabs (control of Example 16) (Fab, V domains shown)
VH: QVQLVQSGAEVKKPGESLKISCRGSGYRFTSYWINWVRQLPGKGLEWMGRIDPTDSYTNYSPSFKGHVTVSADKSINTAYLQWSSLKASDTGMYYCARLEPGYSSTWSVNWGQGTLVTVSS
VL: LTVLTQPPSVSGAPRQRVTISCSGNSSNIGNNAVNWYQQLPGKAPKLLIYYDDQLPSGVSDRFSGSRSGTSASLAIRGLQSEDEADYYCTSWDDSLDSQLFGGGTRLTVL
B1 showed a concentration at which fluorescence intensity peaked of 30 µg/mL.
